Experimental findings from paper PMC6555819, “Comprehensive study of nuclear receptor DNA binding provides a revised framework for understanding receptor specificity” are described below.

The chains are these.
B1: NRC3_wobSeed141_DR5_C26A_o1 (dsDNA)
DNA 1: GCAGTCAAAGTTCAGGACGAGGTAAAGTAAAGCACGGCGATTGACAGCGTAGAATGAAGG
DNA 2: CCTTCATTCTACGCTGTCAATCGCCGTGCTTTACTTTACCTCGTCCTGAACTTTGACTGC
B2: NRC3_wobSeed141_DR5_G22A_o1 (dsDNA)
DNA 1: B1 DNA 1 with G22A, A26C
DNA 2: B1 DNA 2 with T35G, C39T
B3: NRC3_wobSeed113_DR4_A28C_o1 (dsDNA)
DNA 1: GCATATGTAGGTTAGCTGGGGTCATTCCGACTAGGCGCGATTGACAGCGTAGAATGAAGG
DNA 2: CCTTCATTCTACGCTGTCAATCGCGCCTAGTCGGAATGACCCCAGCTAACCTACATATGC
B4: NRC3_wobSeed111_DR4_A17G_o1 (dsDNA)
DNA 1: GCCGAACTAGGTCAGAGCAGGACAGTGAAGGATGATGCGATTGACAGCGTAGAATGAAGG
DNA 2: CCTTCATTCTACGCTGTCAATCGCATCATCCTTCACTGTCCTGCTCTGACCTAGTTCGGC
B5: NRC3_wobSeed46_DR1_G13A_o1 (dsDNA)
DNA 1: GCTTACCAAGGTAAAAGGTCGTTGATGCACGCCTTGGCGATTGACAGCGTAGAATGAAGG
DNA 2: CCTTCATTCTACGCTGTCAATCGCCAAGGCGTGCATCAACGACCTTTTACCTTGGTAAGC
B6: NRC3_wobSeed5_DR0_A15C_o1 (dsDNA)
DNA 1: GCCCTTACGGGTCACGGTTATAGCACGGGTGGTACGGCGATTGACAGCGTAGAATGAAGG
DNA 2: CCTTCATTCTACGCTGTCAATCGCCGTACCACCCGTGCTATAACCGTGACCCGTAAGGGC
B7: NRC3_wobSeed18_DR0_G23A_o1 (dsDNA)
DNA 1: GCGATACAGGGTCAAGGCCAGAATACGCGTATTGATGCGATTGACAGCGTAGAATGAAGG
DNA 2: CCTTCATTCTACGCTGTCAATCGCATCAATACGCGTATTCTGGCCTTGACCCTGTATCGC
B8: NRC3_wobSeed109_DR4_G4C_o1 (dsDNA)
DNA 1: GCCCTCCAAGGTCATAGGAGGTCAGTGAAGACAGATGCGATTGACAGCGTAGAATGAAGG
DNA 2: CCTTCATTCTACGCTGTCAATCGCATCTGTCTTCACTGACCTCCTATGACCTTGGAGGGC
B9: NRC3_wobSeed30_DR1_C8A_o1 (dsDNA)
DNA 1: GCACTAGAAGGCCAAGGGTCACTCAAGATTAGTCCGGCGATTGACAGCGTAGAATGAAGG
DNA 2: CCTTCATTCTACGCTGTCAATCGCCGGACTAATCTTGAGTGACCCTTGGCCTTCTAGTGC
B10: NRC3_wobSeed27_DR1_C13T_o1 (dsDNA)
DNA 1: GCACTCGGAGGATAAAGGTCAGAGCTACGCCAGTGAGCGATTGACAGCGTAGAATGAAGG
DNA 2: CCTTCATTCTACGCTGTCAATCGCTCACTGGCGTAGCTCTGACCTTTATCCTCCGAGTGC
B11: NRC3_wobSeed27_DR1_A15G_o1 (dsDNA)
DNA 1: B10 DNA 1 with T13C, A15G
DNA 2: B10 DNA 2 with T46C, A48G
B12: NRC3_wobSeed93_DR3_A18G_o1 (dsDNA)
DNA 1: GCAGTCAAAGTTCATCTGGGTAACGTAAGATATGCTGCGATTGACAGCGTAGAATGAAGG
DNA 2: CCTTCATTCTACGCTGTCAATCGCAGCATATCTTACGTTACCCAGATGAACTTTGACTGC
B13: NRC3_wobSeed93_DR3_C16T_o1 (dsDNA)
DNA 1: B12 DNA 1 with C16T, G18A
DNA 2: B12 DNA 2 with C43T, G45A
B14: NRC3_wobSeed77_DR3_C16G_o1 (dsDNA)
DNA 1: GCACTTACGGGTCAAGGAGGTTATAGCACGCGTATAGCGATTGACAGCGTAGAATGAAGG
DNA 2: CCTTCATTCTACGCTGTCAATCGCTATACGCGTGCTATAACCTCCTTGACCCGTAAGTGC
B15: NRC3_wobSeed77_DR3_G19A_o1 (dsDNA)
DNA 1: B14 DNA 1 with G16C, G19A
DNA 2: B14 DNA 2 with C42T, C45G
B16: NRC3_wobSeed90_DR3_G15T_o1 (dsDNA)
DNA 1: GCCATACAGGGTCATCTAGGCCAGAGTAGGGACGGCGCGATTGACAGCGTAGAATGAAGG
DNA 2: CCTTCATTCTACGCTGTCAATCGCGCCGTCCCTACTCTGGCCTAGATGACCCTGTATGGC
B17: NRC3_wobSeed138_DR5_G15T_o1 (dsDNA)
DNA 1: GCGATACAGGGTCATCTAGAGGCCAGAGTATGGAAAGCGATTGACAGCGTAGAATGAAGG
DNA 2: CCTTCATTCTACGCTGTCAATCGCTTTCCATACTCTGGCCTCTAGATGACCCTGTATCGC
B18: NRC3_wobSeed44_DR1_T13G_o1 (dsDNA)
DNA 1: GCTGAATGAGGTGAAAGATCAGGGAACGTGGCGTCGGCGATTGACAGCGTAGAATGAAGG
DNA 2: CCTTCATTCTACGCTGTCAATCGCCGACGCCACGTTCCCTGATCTTTCACCTCATTCAGC
B19: NRC3_wobSeed69_DR2_T20C_o1 (dsDNA)
DNA 1: GCAGTCAAAGTTCACTAGGCAACGTAAGATTCAGCTGCGATTGACAGCGTAGAATGAAGG
DNA 2: CCTTCATTCTACGCTGTCAATCGCAGCTGAATCTTACGTTGCCTAGTGAACTTTGACTGC
B20: NRC3_wobSeed20_DR0_A9G_o1 (dsDNA)
DNA 1: GCAGAATGGGGTTAAGATCAGGGAAACAGAATACATGCGATTGACAGCGTAGAATGAAGG
DNA 2: CCTTCATTCTACGCTGTCAATCGCATGTATTCTGTTTCCCTGATCTTAACCCCATTCTGC
B21: NRC3_wobSeed43_DR1_A25C_o1 (dsDNA)
DNA 1: GCCCAGACAGGTGAAAGGTAACTCCGTCTGGTACGCGCGATTGACAGCGTAGAATGAAGG
DNA 2: CCTTCATTCTACGCTGTCAATCGCGCGTACCAGACGGAGTTACCTTTCACCTGTCTGGGC
B22: NRC3_wobSeed61_DR2_T24A_o1 (dsDNA)
DNA 1: GCCGTCCAAGGTCAGCAGGTCAGAGAAAGCGACGTGGCGATTGACAGCGTAGAATGAAGG
DNA 2: CCTTCATTCTACGCTGTCAATCGCCACGTCGCTTTCTCTGACCTGCTGACCTTGGACGGC
B23: NRC3_wobSeed34_DR1_C5A_o1 (dsDNA)
DNA 1: GCATAGAAAGGTCGAAGGTGAGTATACCCACCCGAAGCGATTGACAGCGTAGAATGAAGG
DNA 2: CCTTCATTCTACGCTGTCAATCGCTTCGGGTGGGTATACTCACCTTCGACCTTTCTATGC

Changes are numbered by the printed parent chain.

PPARg:RXRa, sequence (P37231 29-505, chain 1 of 2): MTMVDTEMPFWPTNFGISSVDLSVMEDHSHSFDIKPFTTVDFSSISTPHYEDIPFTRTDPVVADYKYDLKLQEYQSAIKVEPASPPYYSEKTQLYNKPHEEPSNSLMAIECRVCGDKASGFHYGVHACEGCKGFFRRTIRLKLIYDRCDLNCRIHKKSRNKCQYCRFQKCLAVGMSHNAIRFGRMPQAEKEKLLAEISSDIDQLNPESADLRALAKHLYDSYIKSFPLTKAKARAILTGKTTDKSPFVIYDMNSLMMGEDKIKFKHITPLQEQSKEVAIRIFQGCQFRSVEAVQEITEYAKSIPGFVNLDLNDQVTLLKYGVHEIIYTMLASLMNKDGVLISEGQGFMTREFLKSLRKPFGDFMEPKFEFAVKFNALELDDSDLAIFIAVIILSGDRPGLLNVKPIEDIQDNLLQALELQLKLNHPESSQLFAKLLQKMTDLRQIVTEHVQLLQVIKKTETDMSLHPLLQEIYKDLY
PPARg:RXRa, sequence (P19793 whole entry, chain 2 of 2): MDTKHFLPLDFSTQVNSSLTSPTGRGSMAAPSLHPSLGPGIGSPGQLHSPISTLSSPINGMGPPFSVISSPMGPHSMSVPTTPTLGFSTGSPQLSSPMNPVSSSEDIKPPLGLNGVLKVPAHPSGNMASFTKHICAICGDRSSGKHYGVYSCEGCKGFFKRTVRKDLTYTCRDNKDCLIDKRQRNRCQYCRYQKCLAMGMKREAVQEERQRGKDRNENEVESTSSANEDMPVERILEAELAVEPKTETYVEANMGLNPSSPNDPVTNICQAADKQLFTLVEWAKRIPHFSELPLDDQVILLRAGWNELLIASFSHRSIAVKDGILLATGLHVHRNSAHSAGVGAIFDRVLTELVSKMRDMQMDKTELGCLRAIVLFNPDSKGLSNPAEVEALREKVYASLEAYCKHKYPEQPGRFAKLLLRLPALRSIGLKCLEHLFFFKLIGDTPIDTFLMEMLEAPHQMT

The series has as its target PPARg:RXRa (Homo sapiens, UniProt P37231;P19793 full;full). Briefly: no ligand; PBM; 180 nM : 90 nM RXRa; PBS pH 7.4, 2% milk, 0.02% Triton X-100, 1 mM DTT, BSA, 0.4 mg/ml salmon testes DNA. The following applies: tags: His kept;His cleaved; copies: 1;1; label: surface-attached array probe.
Regarding B1, the binding signal is 4.92 PBM z-score against 500 random probes. To B2 belongs 4.64 PBM z-score against 500 random probes. As to B3, the binding signal was 5.53 PBM z-score against 500 random probes. As to B4, the binding signal was 5.81 PBM z-score against 500 random probes.

B5: the binding signal is 6.58 PBM z-score against 500 random probes. As to B6, the binding signal was 6.21 PBM z-score against 500 random probes.

Take B7: the binding signal was 6.34 PBM z-score against 500 random probes. As for B8, the figure is 5.72 PBM z-score against 500 random probes. B9: the binding signal was 6.78 PBM z-score against 500 random probes.

In the case of B10, the binding signal is 6.02 PBM z-score against 500 random probes. On to B11, for which the binding signal is 4.56 PBM z-score against 500 random probes. As for B12, the figure is 6.45 PBM z-score against 500 random probes; as for B13, 5.92 PBM z-score against 500 random probes.

Regarding B14, the binding signal is 5.22 PBM z-score against 500 random probes. B15: the binding signal is 4.99 PBM z-score against 500 random probes.

Consider B16, for which the binding signal was 5.29 PBM z-score against 500 random probes. For B17, the binding signal is 6.11 PBM z-score against 500 random probes. With B18, the binding signal was 6.9 PBM z-score against 500 random probes. Regarding B19, the binding signal is 6.68 PBM z-score against 500 random probes.

With B20, the binding signal was 4.73 PBM z-score against 500 random probes. As for B21, the figure is 5.61 PBM z-score against 500 random probes; as for B22, 4.83 PBM z-score against 500 random probes; as for B23, 5.06 PBM z-score against 500 random probes.
